Results reported in patent US20190144538A1 (TETRAGENETICS, published 2019).

B1: 19724p1.E6 (Fc fusion, not shown: small tags and cut ends; a dimerising Fc or GST)
scFv (part 1 of 2): ALTQPASVSANLGETVEITCSGGYSDDGSYYYGWYQQKSPGSAPVTVIYENNKRPSDIPSRFSGSLSGSTNTLTITGVRAEDEAVYYCGSWDSSAGIFGAGTTLTVL
scFv (part 2 of 2): MAAVTLDESGGGLQTPGGTLSLVCKASGFTFSSHGMQWVRQAPGKGLEWVAGISRDGSRTRYGAAVKGRATISRDNGQSTVRLQLNNLRAEDTAIYFCAKSAYECDGYSCWTFIAGSIDAWGHGTEVIVS
B2: 1A3 (Fc fusion, not shown: small tags and cut ends; a dimerising Fc or GST)
scFv (part 1 of 2): LDIQMTQSPSSVTASVGEKVTINCKSSQSVVSASNQKSYLNWYQQRPGQSPRLLIYYASTQELGIPDRFSGSGSTTDFTLTISSVQPEDAAVYYCQQAYSAPYNFGSGTRLEIK
scFv (part 2 of 2): QVQLQESGGGLVQPGGSLRLSCAASGFTFSINGMSWVRQAPGKEVEWVSSINSGGEITNYRDSVKGRFTISRDNVKNTLYLQMNSLKPEDTAFYHCVTGIVAYDYWGQGTQVTVSS

Legend:
[1] = target: human Kv1.3 protein with C-terminal FLAG and 10xHis tags (human) (UniProt P22001); assay: ELISA, supernatant, dilution 6250
human Kv1.3 protein with C-terminal FLAG and 10xHis tags (human), sequence (P22001 other isoform, or with tags, fused parts or gaps): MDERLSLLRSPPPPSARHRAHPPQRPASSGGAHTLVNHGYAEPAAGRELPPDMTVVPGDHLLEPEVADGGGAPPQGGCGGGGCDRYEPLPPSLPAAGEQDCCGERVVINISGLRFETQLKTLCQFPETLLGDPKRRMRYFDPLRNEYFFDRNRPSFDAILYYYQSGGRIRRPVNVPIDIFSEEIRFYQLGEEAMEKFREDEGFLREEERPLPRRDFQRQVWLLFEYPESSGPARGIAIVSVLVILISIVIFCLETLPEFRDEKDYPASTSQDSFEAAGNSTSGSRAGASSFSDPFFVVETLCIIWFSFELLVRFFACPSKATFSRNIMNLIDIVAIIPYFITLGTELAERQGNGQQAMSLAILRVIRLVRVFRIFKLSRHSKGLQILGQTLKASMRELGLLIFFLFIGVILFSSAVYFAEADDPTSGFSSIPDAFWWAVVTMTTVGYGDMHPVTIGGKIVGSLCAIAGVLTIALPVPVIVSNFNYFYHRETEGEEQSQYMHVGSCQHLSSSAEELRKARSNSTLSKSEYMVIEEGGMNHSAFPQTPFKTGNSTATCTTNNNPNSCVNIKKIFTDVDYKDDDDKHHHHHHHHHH

[2] = target: human Kv1.3 protein with C-terminal FLAG and 10xHis tags (human) (UniProt P22001); assay: ELISA, supernatant, dilution 250
[3] = target: human Kv1.3 protein with C-terminal FLAG and 10xHis tags (human) (UniProt P22001); assay: ELISA, supernatant, dilution 1250
[4] = target: human Kv1.3 protein on cells (human, UniProt P22001 1-575); assay: cell-based or functional assay
human Kv1.3 protein on cells, sequence (P22001 whole entry): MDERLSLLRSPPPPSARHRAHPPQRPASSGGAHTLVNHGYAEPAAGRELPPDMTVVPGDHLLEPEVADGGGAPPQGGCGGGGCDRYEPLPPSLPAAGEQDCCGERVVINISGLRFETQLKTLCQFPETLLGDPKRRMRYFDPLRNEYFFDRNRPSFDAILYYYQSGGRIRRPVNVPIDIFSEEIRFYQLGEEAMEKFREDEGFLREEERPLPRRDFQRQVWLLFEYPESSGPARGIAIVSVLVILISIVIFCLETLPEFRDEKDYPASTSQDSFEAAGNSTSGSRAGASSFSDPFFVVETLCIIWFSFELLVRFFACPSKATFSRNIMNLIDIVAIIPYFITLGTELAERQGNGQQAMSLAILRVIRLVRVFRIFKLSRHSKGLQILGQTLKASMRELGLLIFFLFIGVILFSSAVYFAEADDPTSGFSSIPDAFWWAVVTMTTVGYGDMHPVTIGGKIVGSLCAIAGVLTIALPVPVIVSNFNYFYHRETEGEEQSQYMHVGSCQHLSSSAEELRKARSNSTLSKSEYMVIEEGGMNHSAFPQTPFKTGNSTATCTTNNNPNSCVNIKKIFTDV

[5] = target: human Kv1.3 protein with C-terminal FLAG and 10xHis tags (human) (UniProt P22001); assay: ELISA, supernatant, dilution 50

| ELISA signal [1] | ELISA signal [2] | ELISA signal [3] | IC50, dose-response of Kv1.3 current block (whole-cell patch clamp) [4] [nM] | ELISA signal [5] | Binder |
| --- | --- | --- | --- | --- | --- |
| 0.084 | 0.074 | 0.077 | 6 | 0.077 | B1 |
|  |  |  | 109 |  | B2 |
